From PMC7948426

Target: NES–Venus–mGsi (nuclear export sequence–Venus–mini G protein mGsi)
Test: BRET with mini G protein V-mGsi (net BRET pH profile)
Details: read off a plot
[1] = 150 mM K+ (no Na+), pH 6.5 point
[2] = 150 mM K+ (no Na+), pH 8.5 point

Substance | response [1] [netBRET] | response [2] [netBRET] | response (150 mM Na+, pH 6.5 point) [netBRET] | response (150 mM Na+, pH 8.5 point) [netBRET]
GPR68–Rluc8 (wild type) (from UniProt Q15743) D67N; D282N | 0.0073 | 0.0037 | 0.006 | 0.0023
GPR65–Rluc8 (wild type) (from UniProt Q8IYL9) D60N; D286N | 0.033 | 0.019 | 0.032 | 0.02
GPR65–Rluc8 (wild type) (from UniProt Q8IYL9) E142Q | 0.063 | 0.052 | 0.06 | 0.034
GPR4–Rluc8 (wild type) (from UniProt P46093) E145Q | 0.032 | 0.023 | 0.032 | 0.013
GPR4–Rluc8 (wild type) (from UniProt P46093) D63N; D282N | 0.0057 | 0.0026 | 0.0068 | 0.0022
GPR68–Rluc8 (wild type) (from UniProt Q15743) E149Q | 0.029 | 0.026 | 0.028 | 0.018
